Target: soluble monomeric 1059 gp120 (HIV-1 clone 1059_09.A4.1460 (clade B …, strain))
Assay: ELISA

B1: N6 (CD4-binding site broadly neutralizing antibody) (antibody, V domains shown)
VH: RAHLVQSGTAMKKPGASVRVSCQTSGYTFTAHILFWFRQAPGRGLEWVGWIKPQYGAVNFGGGFRDRVTLTRDVYREIAYMDIRGLKPDDTAVYYCARDRSYGDSSWALDAWGQGTTVVVSA
VL: YIHVTQSPSSLSVSIGDRVTINCQTSQGVGSDLHWYQHKPGRAPKLLIHHTSSVEDGVPSRFSGSGFHTSFNLTISDLQADDIATYYCQVLQFFGRGSRLHIK
binding result: binds

Source: article PMC10515946 (bioRxiv, 2023)
